According to the supplement of paper PMC7877785:
± gives the uncertainty stated by the source.

Test: self-splicing fitness, log relative to wild type (ln ratio); higher = more splicing; Tetrahymena group I intron in knt gene, E. coli kanamycin selection, DiMSum; sequences stand for … in CUCUCU…GGAGGGAAAAGUUAUCAGGCAUGCACCUGGUAGCUAGUCUUUAAACCAAUAGAUUGCAUCGGUUUAAAAGGCAAGACCGUCAAAUUGCGGGAAAGGGGUCAACAGCCGUUCAGUACCAAGUCUCAGGGGAAACUUUGAGAUGGCCUUGCAAAGGGUAUGGUAAUAAGCUGACGGACAUGGUCCUAACCACGCAGCCAAGUCCUAAGUCAACAGAUCUUCUGUUGAUAUGGAUGCAGUUCACAGACUAAAUGUCGGUCGGGGAAGAUGUAUUCUUCUCAUAAGAUAUAGUCGGACCUCUCCUUAAUGGGAGCUAGCGGAUGAAGUGAUGCAACACUGGAGCCGCUGGGAACUAAUUUGUAUGCGAAAGUAUAUUGAUUAGUUUUGGAGUACUCGUGGUCG
Outline: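 Colonies from six replicate transformations of E. coli BL21(DE3) were pooled and amplicon-sequenced on an Illumina HiSeq 2500. The library placed an intron with all eight P1ex-region nucleotides randomised inside the knt kanamycin-resistance gene on pET-22b(+), and cells grew overnight at 37°C or 30°C on LB agar with or without 25 μg/mL kanamycin (plus 100 μg/mL carbenicillin, 50 μM IPTG, 0.2% rhamnose). Fitness is the DiMSum error-weighted combination of wild-type-normalised replicate fold changes, kanamycin versus none.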

Sequence | self-splicing fitness (ln) (30 °C) | self-splicing fitness (ln) (37 °C)
CGAAAGCAAUAUUACGUGUA | -3 ± 0.13 | -2.35 ± 0.13
CGAAAGCAAUAUUACGUUAC | -3.15 ± 0.18 | -3.01 ± 0.26
CGACAGCAAUAUUACGAAAU | -3.15 ± 0.12 | -3.06 ± 0.19
CGACAGCAAUAUUACGAAGG | -1.94 ± 0.092 | -0.848 ± 0.13
CGACAGCAAUAUUACGAAUG | -1.1 ± 0.079 | -0.112 ± 0.1
CGACAGCAAUAUUACGAAUU | -3.51 ± 0.19 | -2.04 ± 0.18
CGACAGCAAUAUUACGAGCA | -2.11 ± 0.18 | -1.26 ± 0.16
CGACAGCAAUAUUACGAUAC | -3.71 ± 0.25 | -2.96 ± 0.27
CGACAGCAAUAUUACGAUCG | -3.43 ± 0.2 | -2.11 ± 0.2
CGACAGCAAUAUUACGAUGG | -0.855 ± 0.072 | -0.172 ± 0.094
CGACAGCAAUAUUACGCCAA | -2.18 ± 0.28 | -3.28 ± 0.37
CGACAGCAAUAUUACGCCGA | -2.36 ± 0.11 | -0.991 ± 0.094
CGACAGCAAUAUUACGCCGG | -0.394 ± 0.059 | -0.272 ± 0.067
CGACAGCAAUAUUACGCGCA | -1.17 ± 0.13 | -0.0102 ± 0.12
CGACAGCAAUAUUACGCGCC | -2.02 ± 0.13 | -0.187 ± 0.17
CGACAGCAAUAUUACGCGCG | -2.61 ± 0.19 | -1.8 ± 0.18
CGACAGCAAUAUUACGCGUU | -4.77 ± 0.26 | -3.29 ± 0.18
CGACAGCAAUAUUACGCUUU | -5.56 ± 0.41 | -2.05 ± 0.15
CGACAGCAAUAUUACGGAAA | -1.98 ± 0.21 | -2.2 ± 0.18
CGACAGCAAUAUUACGGAGG | -1.91 ± 0.086 | -1.21 ± 0.12
CGACAGCAAUAUUACGGCAG | -0.376 ± 0.083 | 0.289 ± 0.094
CGACAGCAAUAUUACGGCCU | -1.57 ± 0.13 | -0.3 ± 0.14

Sequence | self-splicing fitness (ln) (30 °C) | self-splicing fitness (ln) (37 °C)
CGACAGCAAUAUUACGGCUG | -3.32 ± 0.19 | -0.951 ± 0.16
CGACAGCAAUAUUACGUAGU | -3.12 ± 0.099 | -2.11 ± 0.12
CGACAGCAAUAUUACGUCAG | -2.38 ± 0.094 | -1.94 ± 0.12
CGACAGCAAUAUUACGUCGA | -3.04 ± 0.18 | -2.51 ± 0.15
CGACAGCAAUAUUACGUGCA | -1.57 ± 0.057 | -0.14 ± 0.07
CGACAGCAAUAUUACGUUAU | -3.7 ± 0.13 | -2.23 ± 0.12
CGAGAGCAAUAUUACGACAG | -2.82 ± 0.37 | -1.15 ± 0.32
CGAGAGCAAUAUUACGAUGU | -3.97 ± 0.25 | -1.83 ± 0.19
CGAGAGCAAUAUUACGAUUG |  | -2.09 ± 0.34
CGAGAGCAAUAUUACGCAUU | -2.84 ± 0.24 | -2.33 ± 0.21
CGAGAGCAAUAUUACGCUGU |  | -3.26 ± 0.38
CGAGAGCAAUAUUACGGACA | -1.85 ± 0.28 | -3.4 ± 0.39
CGAGAGCAAUAUUACGGAUG | -3.42 ± 0.33 | -1.83 ± 0.28
CGAGAGCAAUAUUACGGCAG | -2 ± 0.18 | -1.33 ± 0.22
CGAGAGCAAUAUUACGGGUU |  | -2.27 ± 0.5
CGAGAGCAAUAUUACGGUCC | -2.23 ± 0.23 | 
CGAGAGCAAUAUUACGGUCG | -1.42 ± 0.34 | -2.28 ± 0.24
CGAGAGCAAUAUUACGUACA | -1.64 ± 0.27 | -1.71 ± 0.42
CGAGAGCAAUAUUACGUCAC | -4.62 ± 0.39 | -2.45 ± 0.3
CGAGAGCAAUAUUACGUCAG | -2.31 ± 0.17 | -2.54 ± 0.21
CGAGAGCAAUAUUACGUGAA | -3.24 ± 0.2 | -2.44 ± 0.29
